Measurements reported in paper doi:10.1101/2021.12.03.471045 (2021).

Assays:
[1] = target: T1, early pandemic (Wuhan) SARS-CoV-2 RBD (SARS-CoV-2, UniProt P0DTC2); test: SPR
[2] = target: T1, early pandemic (Wuhan) SARS-CoV-2 RBD; test: SPR; remark: listed apart in the source

| Binder | koff [1] [s⁻¹] | Kd [2] [nM] |
| --- | --- | --- |
| EY6A mAb (IgG) (antibody, V domains shown) VH: EVQLVESGGGVVQPGRSLRLSCAASAFTFSSYDMHWVRQAPGKGLEWVAVISYDGSNKYYADSVKGRFTISRDNSKNTLYLQMNSLRAEDTAVYYCAKDGGKLWVYYFDYWGQGTLVTVSS VL: not shown | 0.0048 |  |
| Beta-55 mAb (IgG) (antibody, V domains shown) VH: QVQLQESGPGLVKPSETLSLTCTVSGDSISSSRYYWGWIRQPPGKGLEWIGTFYYSGITYYNPSLKSRVTIFVDTSKNQFSLKLSSVTAADTAVYYCARPRPPDYYDNSGALLFDIWGQGTMVTVSS VL: AIRMTQSPSTLSASVGDRVTIACRASQSISAWLAWYQQKPGKAPKLLIYKASSLESGVPSRFSGSGSGTEFTLTINSLQPDDFATYYCQQYISSSPWTFGQGTKVEIK | 0.00018 | 0.177 |
